Data from IntAct's records for PubMed 17891176.

B1: DNA-binding protein inhibitor ID-1 (Homo sapiens), P41134 (parent)
chain: MKVASGSTATAAAGPSCALKAGKTASGAGEVVRCLSEQSVAISRCAGGAGARLPALLDEQQVNVLLYDMNGCYSRLKELVPTLPQNRKVSKVEILQHVIDYIRDLQLELNSESEVGTPGGRGLPVRAPLSTLNGEISALTAEAACVPADDRILCR

Variants of: B1
Conditions: with psmd4_human PSMD4, P55036
Chain of psmd4_human PSMD4, P55036 (P55036 whole entry): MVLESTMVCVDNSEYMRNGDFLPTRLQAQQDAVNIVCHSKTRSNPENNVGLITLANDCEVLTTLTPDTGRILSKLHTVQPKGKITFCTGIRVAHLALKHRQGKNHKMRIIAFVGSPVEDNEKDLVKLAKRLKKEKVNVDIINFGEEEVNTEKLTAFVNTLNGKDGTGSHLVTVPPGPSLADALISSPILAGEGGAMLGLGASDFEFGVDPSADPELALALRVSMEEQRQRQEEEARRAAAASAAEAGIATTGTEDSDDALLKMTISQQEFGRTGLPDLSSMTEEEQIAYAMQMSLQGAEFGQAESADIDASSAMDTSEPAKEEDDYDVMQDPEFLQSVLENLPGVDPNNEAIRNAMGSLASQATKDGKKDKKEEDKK

| Variant | effect of a mutation on the interaction |
| --- | --- |
| V98G | decreasing interaction |
